Measured values reported in the supplement of paper PMC10567573.

B1: ZNF511 (parent)
chain: HLYPADFRFDKPKKSRSPASAEAP
B2: SMOC2 (parent)
chain: DCAGSPQKPLCASDGRTFLSRCEF

Variants of: B1
Assay: protein stability index of a GFP-peptide fusion (GPS, HEK-293T) (PSI 1-6); higher = more stable
Conditions: c terminus: a fixed tail appended
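Also: lentivirally expressed fusions sorted by FACS into six bins by GFP to DsRed ratio, PSI derived from sequencing read proportions per bin multiplied by bin number.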

**Q.** For HEYPADFRFDKPKKSRSPASAEAP, which protein stability index is on record?
**A.** 4.73

**Q.** For HAYPADFRFDKPKKSRSPASAEAP, which protein stability index is on record?
**A.** 4.37

**Q.** With HCYPADFRFDKPKKSRSPASAEAP as the variant, how does the protein stability index read?
**A.** 3.53

**Q.** For HDYPADFRFDKPKKSRSPASAEAP, which protein stability index is on record?
**A.** 4.91

**Q.** Which protein stability index does the source give for MLYPADFRFDKPKKSRSPASAEAP here?
**A.** 4.09

**Q.** Which protein stability index does the source give for ELYPADFRFDKPKKSRSPASAEAP here?
**A.** 3.81

**Q.** For RLYPADFRFDKPKKSRSPASAEAP, which protein stability index is on record?
**A.** 3.57

**Q.** With SLYPADFRFDKPKKSRSPASAEAP as the variant, how does the protein stability index read?
**A.** 4.48

**Q.** Which protein stability index does the source give for DLYPADFRFDKPKKSRSPASAEAP here?
**A.** 4.13

**Q.** Which protein stability index does the source give for PLYPADFRFDKPKKSRSPASAEAP here?
**A.** 4.58

**Q.** For QLYPADFRFDKPKKSRSPASAEAP, which protein stability index is on record?
**A.** 3.65

**Q.** For LLYPADFRFDKPKKSRSPASAEAP, which protein stability index is on record?
**A.** 3.94

**Q.** With WLYPADFRFDKPKKSRSPASAEAP as the variant, how does the protein stability index read?
**A.** 2.69

**Q.** With TLYPADFRFDKPKKSRSPASAEAP as the variant, how does the protein stability index read?
**A.** 4.19

**Q.** For KLYPADFRFDKPKKSRSPASAEAP, which protein stability index is on record?
**A.** 4.05

**Q.** For ALYPADFRFDKPKKSRSPASAEAP, which protein stability index is on record?
**A.** 3.95

**Q.** With GLYPADFRFDKPKKSRSPASAEAP as the variant, how does the protein stability index read?
**A.** 4.7

**Q.** With VLYPADFRFDKPKKSRSPASAEAP as the variant, how does the protein stability index read?
**A.** 3.67

**Q.** For ILYPADFRFDKPKKSRSPASAEAP, which protein stability index is on record?
**A.** 2.85

**Q.** For CLYPADFRFDKPKKSRSPASAEAP, which protein stability index is on record?
**A.** 3.59

**Q.** With YLYPADFRFDKPKKSRSPASAEAP as the variant, how does the protein stability index read?
**A.** 2.08

**Q.** For NLYPADFRFDKPKKSRSPASAEAP, which protein stability index is on record?
**A.** 4.2

**Q.** With FLYPADFRFDKPKKSRSPASAEAP as the variant, how does the protein stability index read?
**A.** 4.32

Variants of: B2
Assay: as above
Conditions: c terminus: a fixed tail appended

**Q.** With DMAGSPQKPLCASDGRTFLSRCEF as the variant, how does the protein stability index read?
**A.** 2.86

**Q.** For DPAGSPQKPLCASDGRTFLSRCEF, which protein stability index is on record?
**A.** 3.4

**Q.** With DVAGSPQKPLCASDGRTFLSRCEF as the variant, how does the protein stability index read?
**A.** 2.58

**Q.** Which protein stability index does the source give for DSAGSPQKPLCASDGRTFLSRCEF here?
**A.** 2.18

**Q.** Which protein stability index does the source give for DQAGSPQKPLCASDGRTFLSRCEF here?
**A.** 3.12

**Q.** For DIAGSPQKPLCASDGRTFLSRCEF, which protein stability index is on record?
**A.** 2.25

**Q.** For DWAGSPQKPLCASDGRTFLSRCEF, which protein stability index is on record?
**A.** 2.23

**Q.** For DRAGSPQKPLCASDGRTFLSRCEF, which protein stability index is on record?
**A.** 3.19

**Q.** With DDAGSPQKPLCASDGRTFLSRCEF as the variant, how does the protein stability index read?
**A.** 3.44

**Q.** Which protein stability index does the source give for DCAGSPQKPLCASPGRTFLSRCEF here?
**A.** 2.36

**Q.** For DCAGSPQKPLCASTGRTFLSRCEF, which protein stability index is on record?
**A.** 2.82

**Q.** For DCAGSPQKPLCASEGRTFLSRCEF, which protein stability index is on record?
**A.** 2.54

**Q.** Which protein stability index does the source give for DCAGSPQKPLCASMGRTFLSRCEF here?
**A.** 2

**Q.** With DCAGSPQKPLCASKGRTFLSRCEF as the variant, how does the protein stability index read?
**A.** 2.4

**Q.** With DCAGSPQKPLCASDGRTFLSRSEF as the variant, how does the protein stability index read?
**A.** 3.49

**Q.** With DCAGSPQKPLCASDGRTFLSRYEF as the variant, how does the protein stability index read?
**A.** 3.67

**Q.** Which protein stability index does the source give for DCAGSPQKPLCASDGRTFLSRKEF here?
**A.** 4.42

**Q.** Which protein stability index does the source give for DCAGSPQKPLCASDGRTFLSRVEF here?
**A.** 2.63

**Q.** With DCAGSPQKPLCASDGRTFLSRAEF as the variant, how does the protein stability index read?
**A.** 3.86

**Q.** With DCAGSPQKPLCASDGRTFLSRTEF as the variant, how does the protein stability index read?
**A.** 3.29

**Q.** With DCAGSPQKPLCASDGRTFLSRLEF as the variant, how does the protein stability index read?
**A.** 2.5

**Q.** Which protein stability index does the source give for DCAGSPQKPLCASDFRTFLSRCEF here?
**A.** 2.42

**Q.** For DCAGSPQKPLCASDRRTFLSRCEF, which protein stability index is on record?
**A.** 2.83

**Q.** With DCAGSPQKPLCASDCRTFLSRCEF as the variant, how does the protein stability index read?
**A.** 1.99

**Q.** With DCAGSPQKPLCASDMRTFLSRCEF as the variant, how does the protein stability index read?
**A.** 2.81

**Q.** With DCAGSPQKPLCASDSRTFLSRCEF as the variant, how does the protein stability index read?
**A.** 2.5

**Q.** With DCAGSPQKPLCASDIRTFLSRCEF as the variant, how does the protein stability index read?
**A.** 2.76

**Q.** For DCAGSPQKPLCASDQRTFLSRCEF, which protein stability index is on record?
**A.** 2.57

**Q.** For DCAGSPQKPLCASDPRTFLSRCEF, which protein stability index is on record?
**A.** 3

**Q.** With DCAGSPQKPLCASDGRTFLIRCEF as the variant, how does the protein stability index read?
**A.** 3.04

**Q.** For DCAGSPQKPLCASDGRTFLKRCEF, which protein stability index is on record?
**A.** 3.04

**Q.** Which protein stability index does the source give for DCAGSPQKPLCASDGRTFLWRCEF here?
**A.** 3.01

**Q.** For DCAGSPQKPLCASDGRTFLYRCEF, which protein stability index is on record?
**A.** 1.9

**Q.** For DCAGSPQKPLCASDGRTFLERCEF, which protein stability index is on record?
**A.** 2.93

**Q.** With DCAGSPQKPLCASDGRTFLFRCEF as the variant, how does the protein stability index read?
**A.** 1.25

**Q.** With DCAGSPQKPLCASDGRTFLHRCEF as the variant, how does the protein stability index read?
**A.** 2.68

**Q.** Which protein stability index does the source give for DCAGSPQKPLCASDGPTFLSRCEF here?
**A.** 3.43

**Q.** With DCAGSPQKPLCASDGETFLSRCEF as the variant, how does the protein stability index read?
**A.** 4.14

**Q.** For DCAGSPQKPLCADDGRTFLSRCEF, which protein stability index is on record?
**A.** 3.16

**Q.** With DCAGSPQKPLCAPDGRTFLSRCEF as the variant, how does the protein stability index read?
**A.** 1.9

**Q.** With DCAGSPQKPLCALDGRTFLSRCEF as the variant, how does the protein stability index read?
**A.** 2.07

**Q.** Which protein stability index does the source give for DCAGSPQKPLCAQDGRTFLSRCEF here?
**A.** 2.58

**Q.** Which protein stability index does the source give for DCAGSPQKPLCAYDGRTFLSRCEF here?
**A.** 2.25

**Q.** Which protein stability index does the source give for DCAGSGQKPLCASDGRTFLSRCEF here?
**A.** 2.62

**Q.** With DCAGSLQKPLCASDGRTFLSRCEF as the variant, how does the protein stability index read?
**A.** 2.18

**Q.** For DCAGSIQKPLCASDGRTFLSRCEF, which protein stability index is on record?
**A.** 2.34

**Q.** For DCAGSCQKPLCASDGRTFLSRCEF, which protein stability index is on record?
**A.** 2.14

**Q.** Which protein stability index does the source give for DCAGSEQKPLCASDGRTFLSRCEF here?
**A.** 3.15

**Q.** Which protein stability index does the source give for DCAGSRQKPLCASDGRTFLSRCEF here?
**A.** 2.19

**Q.** With DCAGSFQKPLCASDGRTFLSRCEF as the variant, how does the protein stability index read?
**A.** 1.76

**Q.** Which protein stability index does the source give for DCAGSYQKPLCASDGRTFLSRCEF here?
**A.** 2.62

**Q.** With DCAGSVQKPLCASDGRTFLSRCEF as the variant, how does the protein stability index read?
**A.** 1.8

**Q.** Which protein stability index does the source give for DCACSPQKPLCASDGRTFLSRCEF here?
**A.** 3.17

**Q.** For DCADSPQKPLCASDGRTFLSRCEF, which protein stability index is on record?
**A.** 4.36

**Q.** With DCAQSPQKPLCASDGRTFLSRCEF as the variant, how does the protein stability index read?
**A.** 2.88

**Q.** For DCAVSPQKPLCASDGRTFLSRCEF, which protein stability index is on record?
**A.** 2.47

**Q.** Which protein stability index does the source give for DCAGSPQKPLCASDGRTFLSYCEF here?
**A.** 2.27

**Q.** Which protein stability index does the source give for DCAGSPQKPLCASDGRTFLSHCEF here?
**A.** 3.26

**Q.** Which protein stability index does the source give for DCAGSPQKPLCASDGRTFLSFCEF here?
**A.** 2.02

**Q.** With DCAGSPQKPLCASDGRTFLSCCEF as the variant, how does the protein stability index read?
**A.** 2.44

**Q.** Which protein stability index does the source give for DCAGSPQKPLCASDGRTFLSQCEF here?
**A.** 3.1

**Q.** For DCAGSPQKPLCASDGRTFLSWCEF, which protein stability index is on record?
**A.** 1.76

**Q.** With DCAGSPQKPLCASDGRTFLSVCEF as the variant, how does the protein stability index read?
**A.** 2.65

**Q.** Which protein stability index does the source give for DCAGSPQKPLCASDGRTFLSECEF here?
**A.** 3.62

**Q.** Which protein stability index does the source give for KCAGSPQKPLCASDGRTFLSRCEF here?
**A.** 2.59

**Q.** With ICAGSPQKPLCASDGRTFLSRCEF as the variant, how does the protein stability index read?
**A.** 2.92

**Q.** With YCAGSPQKPLCASDGRTFLSRCEF as the variant, how does the protein stability index read?
**A.** 1.72

**Q.** With NCAGSPQKPLCASDGRTFLSRCEF as the variant, how does the protein stability index read?
**A.** 2.2

**Q.** Which protein stability index does the source give for RCAGSPQKPLCASDGRTFLSRCEF here?
**A.** 1.55

**Q.** Which protein stability index does the source give for PCAGSPQKPLCASDGRTFLSRCEF here?
**A.** 2.66

**Q.** With HCAGSPQKPLCASDGRTFLSRCEF as the variant, how does the protein stability index read?
**A.** 2.02
